Entries after “also recorded” stand apart in the source; their conditions may differ.
Assays:
[1] = PK study, single IV dose in cynomolgus monkeys; type: in vivo
Description: (§1) PK studies. PK studies were conducted in mice, rats, and cynomolgus monkeys.
Pharmacokinetic Assay for MetMAb in Cynomolgus Monkey Serum. A direct ELISA was developed to quantitate MetMAb in cynomolgus monkey serum. Plates were coated with a His-tagged c-met extracellular domain fragment, and diluted samples, standards, and controls were added to the coated plates. F(Ab′)2 fragmented, goat anti-human IgG Fc antibodies conjugated to HRP were added for detection. TMB peroxidase was stopped with […]. The plates were read at an absorbance of 450 nm and 620/630 nm.
The lower limit of quantification of the assay was 1.0 ng/ml and the upper limit of quantification was 32.0 ng/ml. The minimum dilution for neat cynomolgus monkey serum samples was 1/50, resulting in a minimum quantifiable concentration of 50 ng/ml, with an indefinite upper limit.
(§2) Mouse, Rat, and Cynomolgus Monkey PK data analysis. […] PK parameters were estimated using WinNonlin Enterprise Version 5.0.1 (Pharsight Corp., Mountain View, Calif.). The nominal dose administered for each group was used for modeling. Since a single concentration-time profile for mice was determined for each group, one estimate of each PK parameter was obtained and is reported, along with the standard error (SE) of the fit of each PK parameter. For rats and monkeys, PK parameters are reported as mean (+/−SD).
(§3) For IV administrations, a two-compartment elimination model with IV bolus input and first-order elimination was used to describe the observed data (WinNonlin Model 7). Concentrations were weighted using iterative reweighting (1/ŷ^2) and the Nelder-Mead minimization algorithm. The following equation was used to calculate concentration over time in Model 7: […]

[2] = PK studies in mice, rats, and cynomolgus monkeys (stated across species); type: in vivo; conditions: cynomolgus monkeys
Description: as §1, §2, §3

[3] = system: c-met; assay: Binding to c-met in cynomolgus monkeys
[4] = molecular target: c-met (Mus musculus, UniProt P16056); assay: Binding to c-met in mice
Sequence of c-met (Mus musculus, UniProt P16056) (P16056 25-1379): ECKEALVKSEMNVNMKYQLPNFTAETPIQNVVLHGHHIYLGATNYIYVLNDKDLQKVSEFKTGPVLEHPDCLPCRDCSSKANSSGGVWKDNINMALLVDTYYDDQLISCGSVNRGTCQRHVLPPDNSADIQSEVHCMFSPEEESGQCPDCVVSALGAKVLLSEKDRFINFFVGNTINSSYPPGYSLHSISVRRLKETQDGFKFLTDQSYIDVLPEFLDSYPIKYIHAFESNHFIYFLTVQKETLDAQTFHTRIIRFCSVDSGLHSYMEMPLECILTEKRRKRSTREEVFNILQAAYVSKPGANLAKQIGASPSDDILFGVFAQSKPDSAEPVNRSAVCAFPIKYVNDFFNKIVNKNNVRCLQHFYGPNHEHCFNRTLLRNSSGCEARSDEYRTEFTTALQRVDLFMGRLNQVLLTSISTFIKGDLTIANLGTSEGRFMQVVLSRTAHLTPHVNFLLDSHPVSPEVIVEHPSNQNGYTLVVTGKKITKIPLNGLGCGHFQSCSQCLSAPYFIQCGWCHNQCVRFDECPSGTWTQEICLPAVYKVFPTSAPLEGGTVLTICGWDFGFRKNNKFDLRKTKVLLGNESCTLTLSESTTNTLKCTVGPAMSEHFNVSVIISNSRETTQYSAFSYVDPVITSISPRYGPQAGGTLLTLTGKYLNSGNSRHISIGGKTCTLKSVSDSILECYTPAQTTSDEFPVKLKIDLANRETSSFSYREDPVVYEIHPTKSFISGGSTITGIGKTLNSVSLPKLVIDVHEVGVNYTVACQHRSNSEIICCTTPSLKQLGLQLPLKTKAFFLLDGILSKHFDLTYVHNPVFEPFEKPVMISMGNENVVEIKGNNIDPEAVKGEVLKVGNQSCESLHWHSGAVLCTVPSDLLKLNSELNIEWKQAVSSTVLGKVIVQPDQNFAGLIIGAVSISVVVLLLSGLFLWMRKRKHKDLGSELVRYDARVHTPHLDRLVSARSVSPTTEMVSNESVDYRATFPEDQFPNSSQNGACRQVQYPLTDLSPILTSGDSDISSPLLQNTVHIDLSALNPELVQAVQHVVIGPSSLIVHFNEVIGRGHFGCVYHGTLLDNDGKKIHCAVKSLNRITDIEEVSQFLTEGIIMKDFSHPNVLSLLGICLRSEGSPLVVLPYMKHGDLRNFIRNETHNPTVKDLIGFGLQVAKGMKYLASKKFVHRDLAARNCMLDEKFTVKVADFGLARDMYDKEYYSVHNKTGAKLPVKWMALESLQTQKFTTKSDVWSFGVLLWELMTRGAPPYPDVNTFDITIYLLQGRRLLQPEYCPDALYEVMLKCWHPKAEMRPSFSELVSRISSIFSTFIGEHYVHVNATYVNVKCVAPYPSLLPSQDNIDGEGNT

[5] = system: KP4 human pancreatic ductal cell carcinoma cells; assay: Dose fractionation study in KP4 xenograft mice; type: in vivo; conditions: total 2.5, 7.5 or 30 mg/kg as Q1W, Q2W or Q3W
Description: For example, a 30 mg/kg total dose was given as 10 mg/kg Q1W, 15 mg/kg Q2W, or 30 mg/kg Q3W.
In all cases, tumors were measured with calipers throughout the study.

[6] = Estimation of human PK by allometric scaling; design: species or system humans
Description: Estimation of Human PK Profile.
One approach was allometric scaling, which is based on the assumption that many physical and physiological parameters vary according to a mathematical function of body weight (BW)
Y=a×BWb • where Y is the variable of interest, a is the y-axis intercept, and b is slope.
The log plot of CL value versus body weight, repression, and R-squared values were generated by KaleidaGraph (version 3.6).

[7] = Repeat-dose safety study in cynomolgus monkeys; type: in vivo; conditions: GLP toxicology study
Description: Repeat-dose safety study.

[8] = system: KP4 xenograft; assay: PK/PD model of anti-tumor efficacy in KP4 xenograft mice (MTC); conditions: individual MTC values (n=177) KP4 mice
Description: PK parameter estimates were used as a forcing function to model the pharmacodynamic (PD) endpoint of tumor progression (PD) in KP4 xenograft mice.
Tumor measurements were taken via with calipers, and mice entered the study with tumor volumes of approximately 200 mm^3. Study data up to 21 days from a total of 177 KP4 mice were used in the modeling analysis. Tumor volumes (mm^3) were converted to mass (mg) assuming 1 mm^3=1 mg tumor tissue. A mixed effects PK/pharmacodynamic (PD) model describing anti-tumor efficacy in KP4 xenograft mice was fit to the tumor data using NONMEM software (Double Precision, version V, level 1.0 UCSF, San Francisco Calif.).
MTC is calculated from the differential equation describing tumor mass where (dTM(t)/dt=0)

[9] = Phase I dose-escalation study: safety and tolerability; type: in vivo, humans
Description: Study design. There are two stages to this study, a dose-escalation stage and an expansion stage.
Study treatment. […] Dose levels tested in Phase I were: 1 mg/kg, 4 mg/kg, 10 mg/kg, 20 mg/kg, and 30 mg/kg.

[10] = system: HGF; assay: Phase I study: serum HGF levels by ELISA; type: in vivo, humans
Description: (§4) Pre- and post-dose serum is collected for evaluation of pharmacodynamic (PD) biomarkers that could be affected by inhibition of Met signaling. In addition, archival tissue is obtained for exploratory diagnostic assessments.
Serum HGF levels were determined using ELISA. […] For patient 12007, HGF expression increased to baseline levels in subsequent cycles. For patient 11009, HGF levels decreased by 70% post drug treatment and remained low for the duration of the study.

[11] = system: IL-8; assay: Phase I study: serum IL-8 levels by electrochemiluminescence; type: in vivo, humans
Description: as §4
Serum IL-8 levels (diluted 1:5) were determined using an electrochemiluminescence based method as directed by the manufacturer (Meso Scale Discovery, Gaithersburg Md.; Cat. No. K111ANC).

Substance: MetMAb: recombinant, humanized, monovalent (one-armed) monoclonal antibody directed against human c-met
- Terminal Half-Life ([1]; Cynomolgus monkey): 97.2 h
- V1 ([1]; Cynomolgus monkey): 0.0338 L/kg
- Vss ([1]; Cynomolgus monkey): 0.0703 L/kg
- CL ([1]; Cynomolgus monkey (n = 4), linear dose range): 13.4 mL/day/kg
- Beta half-life [2]: 96 to 120 h
- Binding to c-met [3]: binds to c-met
- Binding to c-met [4]: does not bind to c-met
- Efficacy at the same dose level with different dose regimens [5]: similar
- Predicted clearance in humans [6]: 10 mL/day/kg
- Highest non-severely toxic dose [7]: 100 mg/kg
- MTC, 90% of values [8]: below 110 μg/mL
- Median MTC (Minimum Tumorostatic Concentration) [8]: approximately 15 μg/mL
- Abdominal pain, drug-related, Grade 1 or 2 (patients) ([9]; Total (n = 21)): 0
- Abdominal pain, drug-related, Grade 3 (patients) ([9]; Total (n = 21)): 1 (4.8%)
- Anorexia, drug-related, Grade 1 or 2 (patients) ([9]; Total (n = 21)): 2
- Anorexia, drug-related, Grade 3 (patients) ([9]; Total (n = 21)): 0
- Any adverse event, drug-related, Grade 3 (patients) ([9]; Total (n = 21)): 2 (9.5%)
- Diarrhoea, drug-related, Grade 1 or 2 (patients) ([9]; Total (n = 21)): 1
- Diarrhoea, drug-related, Grade 3 (patients) ([9]; Total (n = 21)): 0
- Dysgeusia, drug-related, Grade 1 or 2 (patients) ([9]; Total (n = 21)): 1
- Dysgeusia, drug-related, Grade 3 (patients) ([9]; Total (n = 21)): 0
- Fatigue, drug-related, Grade 1 or 2 (patients) ([9]; Total (n = 21)): 7
- Fatigue, drug-related, Grade 3 (patients) ([9]; Total (n = 21)): 0
- Flushing, drug-related, Grade 1 or 2 (patients) ([9]; Total (n = 21)): 1
- Flushing, drug-related, Grade 3 (patients) ([9]; Total (n = 21)): 0
- Gastroesophageal reflux disease (GERD), drug-related, Grade 1 or 2 (patients) ([9]; Total (n = 21)): 1
- Gastroesophageal reflux disease (GERD), drug-related, Grade 3 (patients) ([9]; Total (n = 21)): 0
- Hypoalbuminaemia, drug-related, Grade 1 or 2 (patients) ([9]; Total (n = 21)): 2
- Hypoalbuminaemia, drug-related, Grade 3 (patients) ([9]; Total (n = 21)): 0
- Muscle spasms, drug-related, Grade 1 or 2 (patients) ([9]; Total (n = 21)): 1
- Muscle spasms, drug-related, Grade 3 (patients) ([9]; Total (n = 21)): 0
- Mydriasis, drug-related, Grade 1 or 2 (patients) ([9]; Total (n = 21)): 1
- Mydriasis, drug-related, Grade 3 (patients) ([9]; Total (n = 21)): 0
- Nausea, drug-related, Grade 1 or 2 (patients) ([9]; Total (n = 21)): 3
- Nausea, drug-related, Grade 3 (patients) ([9]; Total (n = 21)): 0
- Oedema peripheral, drug-related, Grade 1 or 2 (patients) ([9]; Total (n = 21)): 2
- Oedema peripheral, drug-related, Grade 3 (patients) ([9]; Total (n = 21)): 0
- Oral candidiasis, drug-related, Grade 1 or 2 (patients) ([9]; Total (n = 21)): 1
- Oral candidiasis, drug-related, Grade 3 (patients) ([9]; Total (n = 21)): 0
- Paraesthesia oral, drug-related, Grade 1 or 2 (patients) ([9]; Total (n = 21)): 1
- Paraesthesia oral, drug-related, Grade 3 (patients) ([9]; Total (n = 21)): 0
- Pyrexia, drug-related, Grade 1 or 2 (patients) ([9]; Total (n = 21)): 0
- Rash, drug-related, Grade 1 or 2 (patients) ([9]; Total (n = 21)): 1
- Rash, drug-related, Grade 3 (patients) ([9]; Total (n = 21)): 0
- Swelling face, drug-related, Grade 1 or 2 (patients) ([9]; Total (n = 21)): 1
- Swelling face, drug-related, Grade 3 (patients) ([9]; Total (n = 21)): 0
- Vomiting, drug-related, Grade 1 or 2 (patients) ([9]; Total (n = 21)): 3
- Vomiting, drug-related, Grade 3 (patients) ([9]; Total (n = 21)): 0
- Pyrexia, drug-related, Grade 3 (patients) ([9]; Total (n = 21), Dose Limiting Toxicity (DLT)): 1 (4.8%)
- Dose limiting toxicity (DLT) ([9]; at 4 mg/kg, doses up to 30 mg/kg): A single dose limiting toxicity (DLT) of Grade 3 pyrexia
- Grade 3 toxicity of abdominal pain ([9]; at 20 mg/kg): One
- Most commonly reported adverse event ([9]; dose-escalation): fatigue (Grade 1, 2)
- Drug-related Grade 4 toxicities ([9]; dose-escalation, 1-30 mg/kg): No drug-related Grade 4 toxicities
- Safety and tolerability as a single agent ([9]; doses up to 30 mg/kg, every 3 weeks): safe and generally well tolerated
- Change in serum HGF expression, two patients with highest baseline HGF ([10]; 24 h post drug treatment): significant decrease; also recorded: significantly decreased
- Change in serum HGF expression with MetMAb treatment, in general ([10]; Phase I patients): little or no increase
- Decrease of serum HGF levels post drug treatment, patient 11009 ([10]; remained low for the duration of the study): 70%
- Reduction in circulating IL-8 ([11]; 24 h following treatment, subjects with baseline IL-8 >50 pg/ml): > 50%
- Change in serum IL8 following MetMAb infusions ([11]; most patients with baseline serum IL8 above normal controls): decrease in serum IL8
- Change in IL-8 expression post-MetMAb treatment ([11]; subjects with less than 50 pg/ml baseline IL-8): did not change significantly
